One molecule from EP4696312A1 (IMBIORAY (HANGZHOU) BIOMEDICINE CO., LTD., dated 2024) can be followed below.

Usually Kd stands for the free concentration of one partner at which half of the binding sites on the other are occupied at equilibrium, for simple one-to-one binding. A word on the koff: it is the rate constant with which the complex falls apart. A low value points to a long-lived complex. In general, kon refers to a measure of how fast the partners come together. A high value points to fast association.

In assay [1] the target is T1, Human Trop2 (human, UniProt P09758 27-274).
T1 construct: Recombinant protein loaded onto His-K biosensors; also called TACSTD2; EGP-1
T1 sequence (looked up): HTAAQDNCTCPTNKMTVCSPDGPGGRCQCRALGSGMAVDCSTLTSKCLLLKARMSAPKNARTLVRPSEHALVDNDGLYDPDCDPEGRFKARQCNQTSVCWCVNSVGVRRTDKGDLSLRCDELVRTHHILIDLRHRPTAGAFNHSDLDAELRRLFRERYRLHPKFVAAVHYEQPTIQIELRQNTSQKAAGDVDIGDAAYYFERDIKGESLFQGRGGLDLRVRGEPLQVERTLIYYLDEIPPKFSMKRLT
The assay can be described thus: BLI (OctetR8), Trop2 on His-K probes, antibody in solution.

Assay [2] deals with T2, Rhesus macaque Trop2 (rhesus macaque, UniProt A0A5F8AGB8 27-274).
T2 construct: Recombinant protein loaded onto His-K biosensors
T2 sequence: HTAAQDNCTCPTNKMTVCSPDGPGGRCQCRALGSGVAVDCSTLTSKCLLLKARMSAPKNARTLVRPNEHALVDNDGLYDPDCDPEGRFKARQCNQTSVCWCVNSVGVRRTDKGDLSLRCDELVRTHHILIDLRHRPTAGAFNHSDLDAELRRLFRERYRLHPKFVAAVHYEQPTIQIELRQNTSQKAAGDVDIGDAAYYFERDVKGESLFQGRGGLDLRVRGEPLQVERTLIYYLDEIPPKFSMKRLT
Described as above.

B1: L2-conjugated antibody (anti-Trop2 monoclonal antibody conjugated to L2 linker) (antibody, human IgG1, V domains shown)
VH: EVQLVESGGGLVQPGGSLRLSCAASGFTFNNYAMSWVRQAPGKGLEWVSTISSDGTYTYYADSVKGRFTISRDNSKNTLYLQMNSLRAEDTAVYYCARHPPSYYYAFDYWGQGTTLTVSS
VL: EIVLTQSPGTLSLSPGERATLSCRASESVDSYGNSFIHWYQQKPGQAPRLLIYLASNLESGIPDRFSGSGSGTDFTLTISRLEPEDFAVYYCQQNNEDLWTFGGGTKLEIKA
modifications: L2 linker coupled to lysine residue(s); 1-4 (preferably 1-2) L2 linkers per antibody; chain and positions not stated; L2 linker (dibenzoazacyclooctyne-glutaryl-amino tetraethylene glycol-pentafluorophenyl acetylpiperidinate) coupled to lysine residue(s); 1-4 (preferably 1-2) L2 linkers per antibody; chain and positions not stated
notes: Each chain is the variable region followed by the constant region; also called IB12 (name of the expression plasmid)
In assay [1], B1 returned a dissociation constant Kd of 22.6 nM, an off-rate constant (koff) of 0.0127 s⁻¹ and an on-rate (kon) of 564000 M⁻¹ s⁻¹. In assay [2], this molecule registered a koff below 1e-07 s⁻¹ and an on-rate constant (kon) of 569000 M⁻¹ s⁻¹.
